Consider three molecules from US20070021595A1.

The target of assay [1] is HBV recombinant antigen GST-pre-S1(1-56) (hepatitis B virus). In words: competitive ELISA, pre-S1 antigen in solution and on plate.
For assay [2] the target is unchanged. In words: competitive ELISA, GST-pre-S1(1-56) on plate, COS7 supernatant.
Assay [3] shares this target. In words: competitive ELISA as in Test Example 2, purified antibody from CHO cells.
The target is the same in assay [4]. In words: competitive ELISA as in Test Example 2.

B1: chimeric antibody chKR127 (wild type) (antibody, V domains shown)
VH: QVQLVQSGAEVKAPGASVKVSCKASGYTFTSAWMNWVRQAPGQGLEWMGRIYPSGGSTSYAQKFQGRVTMTADKSTSTVYMELSSLRSEDTAVYYCAREYRVARWGQGTLVTVSA
VL: DIVMTQTPLSLSVTPGQPASISCKSSQSLLYSNGKTYLNWLLQKPGQPPQRLIYLVSNRDSGVPDRFSGSGSGTDFTLKISRVEAEDVGVYYCVQGTHFPQTFGGGTKVEIK
B1: the figures for the dissociation constant (Kd) in assay [1] and in assay [2] were 8.2 nM and 11 nM, respectively.

B2: humanized antibody HuKR127 (antibody, V domains shown)
VH: B1 VH
VL: B1 VL
In the case of B2, in assay [3], the Kd was 0.16 nM and the fold higher affinity than the control group came to 50 fold.

B3: humanized antibody of humanized heavy chain HuKR127HC (HuKR127VH-VII) and humanized antibody HZKR127I light chain (antibody, part only; not given: Light chain, V domains shown, part only)
VH: B1 VH
Regarding B3, in assay [4], the Kd is 0.15 nM and the fold higher affinity than HZKR127I worked out at 50 fold.
